This note sets out measurements from US20220324969A1 (MYTHIC THERAPEUTICS, published 2022).

The labels stand for the following.
B1: MYT1166 (antibody, V domains shown)
VH: EVQLVQSGAEVKKPGSSVKVSCKASGYTITDHNIHWVRQAPGQSLEWIGYIHPYNGGTDYNQKFKNRATLTVDNPTNTAYMELSSLRSEDTDFYYCVNGNPWLAYWGQGTLVTVSS
VL: DIQLTQSPSTLSASVGDRVTITCRASESLDNYGIRFLTWFQQKPGKAPKLLMYAASNQGSGVPSRFSGSGSGTEFTLTISSLQPDDFATYYCQQTKEVPWSFGQGTKVEVK
notes: IgG; gemtuzumab VH combination #5 (S32H+Y52H)
B2: MYT1178 (antibody, V domains shown)
VH: EVQLVQSGAEVKKPGSSVKVSCKASGYTITDHNIHWVRQAPGQSLEWIGYIHPHNGGTDYNQKFKNRATLTVDNPTNTAYMELSSLRSEDTDFYYCVNGNPWLAYWGQGTLVTVSS
VL: DIQLTQSPSTLSASVGDRVTITCRASESLDNYGIRFLTWFQQKPGKAPKLLMYAASNQGSGVPSRFSGSGSGTEFTLTISSLQPDDFATYYCQQTKEVPWSFGQGTKVEVK
notes: IgG; gemtuzumab VH combination #17 (S32H+Y52H+Y54H)
B3: MYT1590 (antibody, V domains shown)
VH: EVQLVQSGAEVKKPGSSVKVSCKASGYTITDSNIHWVRQAPGQSLEWIGYIYPYNGGTDYNQKFKNRATLTVDNPTNTAYMELSSLRSEDTDFYYCVNGNPWLAYWGQGTLVTVSS
VL: DIQLTQSPSTLSASVGDRVTITCHASESLDNYGIRFLTWFQQKPGKAPKLLMYAASNQGSGVPSRFSGSGSGTEFTLTISSLQPDDFATYYCQQTKEVPWSFGQGTKVEVK
notes: IgG; gemtuzumab VL variant #1 (R24H)
B4: MYT1174 (antibody, V domains shown)
VH: EVQLVQSGAEVKKPGSSVKVSCKASGYTHTDHNIHWVRQAPGQSLEWIGYIYPYNGHTDYNQKFKNRATLTVDNPTNTAYMELSSLRSEDTDFYYCVNGNPWLAYWGQGTLVTVSS
VL: DIQLTQSPSTLSASVGDRVTITCRASESLDNYGIRFLTWFQQKPGKAPKLLMYAASNQGSGVPSRFSGSGSGTEFTLTISSLQPDDFATYYCQQTKEVPWSFGQGTKVEVK
notes: IgG; gemtuzumab VH combination #13 (I29H+S32H+G57H)
B5: MYT1180 (antibody, V domains shown)
VH: EVQLVQSGAEVKKPGSSVKVSCKASGYTITDHNIHWVRQAPGQSLEWIGYIYPHNGHTDYNQKFKNRATLTVDNPTNTAYMELSSLRSEDTDFYYCVNGNPWLAYWGQGTLVTVSS
VL: DIQLTQSPSTLSASVGDRVTITCRASESLDNYGIRFLTWFQQKPGKAPKLLMYAASNQGSGVPSRFSGSGSGTEFTLTISSLQPDDFATYYCQQTKEVPWSFGQGTKVEVK
notes: IgG; gemtuzumab VH combination #19 (S32H+Y54H+G57H)
B6: MYT1598 (antibody, V domains shown)
VH: EVQLVQSGAEVKKPGSSVKVSCKASGYTITDSNIHWVRQAPGQSLEWIGYIYPYNGGTDYNQKFKNRATLTVDNPTNTAYMELSSLRSEDTDFYYCVNGNPWLAYWGQGTLVTVSS
VL: DIQLTQSPSTLSASVGDRVTITCRASESLDNHGIRFLTWFQQKPGKAPKLLMYAASNQGSGVPSRFSGSGSGTEFTLTISSLQPDDFATYYCQQTKEVPWSFGQGTKVEVK
notes: IgG; gemtuzumab VL variant #9 (Y32H)
B7: MYT1594 (antibody, V domains shown)
VH: EVQLVQSGAEVKKPGSSVKVSCKASGYTITDSNIHWVRQAPGQSLEWIGYIYPYNGGTDYNQKFKNRATLTVDNPTNTAYMELSSLRSEDTDFYYCVNGNPWLAYWGQGTLVTVSS
VL: DIQLTQSPSTLSASVGDRVTITCRASEHLDNYGIRFLTWFQQKPGKAPKLLMYAASNQGSGVPSRFSGSGSGTEFTLTISSLQPDDFATYYCQQTKEVPWSFGQGTKVEVK
notes: IgG; gemtuzumab VL variant #5 (S28H)
B8: MYT1181 (antibody, V domains shown)
VH: EVQLVQSGAEVKKPGSSVKVSCKASGYTITDSNIHWVRQAPGQSLEWIGYIHPHNGHTDYNQKFKNRATLTVDNPTNTAYMELSSLRSEDTDFYYCVNGNPWLAYWGQGTLVTVSS
VL: DIQLTQSPSTLSASVGDRVTITCRASESLDNYGIRFLTWFQQKPGKAPKLLMYAASNQGSGVPSRFSGSGSGTEFTLTISSLQPDDFATYYCQQTKEVPWSFGQGTKVEVK
notes: IgG; gemtuzumab VH combination #20 (Y52H+Y54H+G57H)
B9: MYT1597 (antibody, V domains shown)
VH: EVQLVQSGAEVKKPGSSVKVSCKASGYTITDSNIHWVRQAPGQSLEWIGYIYPYNGGTDYNQKFKNRATLTVDNPTNTAYMELSSLRSEDTDFYYCVNGNPWLAYWGQGTLVTVSS
VL: DIQLTQSPSTLSASVGDRVTITCRASESLDHYGIRFLTWFQQKPGKAPKLLMYAASNQGSGVPSRFSGSGSGTEFTLTISSLQPDDFATYYCQQTKEVPWSFGQGTKVEVK
notes: IgG; gemtuzumab VL variant #8 (N31H)
B10: MYT1596 (antibody, V domains shown)
VH: EVQLVQSGAEVKKPGSSVKVSCKASGYTITDSNIHWVRQAPGQSLEWIGYIYPYNGGTDYNQKFKNRATLTVDNPTNTAYMELSSLRSEDTDFYYCVNGNPWLAYWGQGTLVTVSS
VL: DIQLTQSPSTLSASVGDRVTITCRASESLHNYGIRFLTWFQQKPGKAPKLLMYAASNQGSGVPSRFSGSGSGTEFTLTISSLQPDDFATYYCQQTKEVPWSFGQGTKVEVK
notes: IgG; gemtuzumab VL variant #7 (D30H)
B11: MYT1599 (antibody, V domains shown)
VH: EVQLVQSGAEVKKPGSSVKVSCKASGYTITDSNIHWVRQAPGQSLEWIGYIYPYNGGTDYNQKFKNRATLTVDNPTNTAYMELSSLRSEDTDFYYCVNGNPWLAYWGQGTLVTVSS
VL: DIQLTQSPSTLSASVGDRVTITCRASESLDNYHIRFLTWFQQKPGKAPKLLMYAASNQGSGVPSRFSGSGSGTEFTLTISSLQPDDFATYYCQQTKEVPWSFGQGTKVEVK
notes: IgG; gemtuzumab VL variant #10 (G33H)
B12: MYT1168 (antibody, V domains shown)
VH: EVQLVQSGAEVKKPGSSVKVSCKASGYTITDHNIHWVRQAPGQSLEWIGYIYPYNGHTDYNQKFKNRATLTVDNPTNTAYMELSSLRSEDTDFYYCVNGNPWLAYWGQGTLVTVSS
VL: DIQLTQSPSTLSASVGDRVTITCRASESLDNYGIRFLTWFQQKPGKAPKLLMYAASNQGSGVPSRFSGSGSGTEFTLTISSLQPDDFATYYCQQTKEVPWSFGQGTKVEVK
notes: IgG; gemtuzumab VH combination #7 (S32H+G57H)
B13: MYT1593 (antibody, V domains shown)
VH: EVQLVQSGAEVKKPGSSVKVSCKASGYTITDSNIHWVRQAPGQSLEWIGYIYPYNGGTDYNQKFKNRATLTVDNPTNTAYMELSSLRSEDTDFYYCVNGNPWLAYWGQGTLVTVSS
VL: DIQLTQSPSTLSASVGDRVTITCRASHSLDNYGIRFLTWFQQKPGKAPKLLMYAASNQGSGVPSRFSGSGSGTEFTLTISSLQPDDFATYYCQQTKEVPWSFGQGTKVEVK
notes: IgG; gemtuzumab VL variant #4 (E27H)
B14: MYT1176 (antibody, V domains shown)
VH: EVQLVQSGAEVKKPGSSVKVSCKASGYTHTDSNIHWVRQAPGQSLEWIGYIHPYNGHTDYNQKFKNRATLTVDNPTNTAYMELSSLRSEDTDFYYCVNGNPWLAYWGQGTLVTVSS
VL: DIQLTQSPSTLSASVGDRVTITCRASESLDNYGIRFLTWFQQKPGKAPKLLMYAASNQGSGVPSRFSGSGSGTEFTLTISSLQPDDFATYYCQQTKEVPWSFGQGTKVEVK
notes: IgG; gemtuzumab VH combination #15 (I29H+Y52H+G57H)
B15: MYT1177 (antibody, V domains shown)
VH: EVQLVQSGAEVKKPGSSVKVSCKASGYTHTDSNIHWVRQAPGQSLEWIGYIYPHNGHTDYNQKFKNRATLTVDNPTNTAYMELSSLRSEDTDFYYCVNGNPWLAYWGQGTLVTVSS
VL: DIQLTQSPSTLSASVGDRVTITCRASESLDNYGIRFLTWFQQKPGKAPKLLMYAASNQGSGVPSRFSGSGSGTEFTLTISSLQPDDFATYYCQQTKEVPWSFGQGTKVEVK
notes: IgG; gemtuzumab VH combination #16 (I29H+Y54H+G57H)
B16: MYT1167 (antibody, V domains shown)
VH: EVQLVQSGAEVKKPGSSVKVSCKASGYTITDHNIHWVRQAPGQSLEWIGYIYPHNGGTDYNQKFKNRATLTVDNPTNTAYMELSSLRSEDTDFYYCVNGNPWLAYWGQGTLVTVSS
VL: DIQLTQSPSTLSASVGDRVTITCRASESLDNYGIRFLTWFQQKPGKAPKLLMYAASNQGSGVPSRFSGSGSGTEFTLTISSLQPDDFATYYCQQTKEVPWSFGQGTKVEVK
notes: IgG; gemtuzumab VH combination #6 (S32H+Y54H)
B17: MYT1169 (antibody, V domains shown)
VH: EVQLVQSGAEVKKPGSSVKVSCKASGYTITDSNIHWVRQAPGQSLEWIGYIHPHNGGTDYNQKFKNRATLTVDNPTNTAYMELSSLRSEDTDFYYCVNGNPWLAYWGQGTLVTVSS
VL: DIQLTQSPSTLSASVGDRVTITCRASESLDNYGIRFLTWFQQKPGKAPKLLMYAASNQGSGVPSRFSGSGSGTEFTLTISSLQPDDFATYYCQQTKEVPWSFGQGTKVEVK
notes: IgG; gemtuzumab VH combination #8 (Y52H+Y54H)
B18: MYT1601 (antibody, V domains shown)
VH: EVQLVQSGAEVKKPGSSVKVSCKASGYTITDSNIHWVRQAPGQSLEWIGYIYPYNGGTDYNQKFKNRATLTVDNPTNTAYMELSSLRSEDTDFYYCVNGNPWLAYWGQGTLVTVSS
VL: DIQLTQSPSTLSASVGDRVTITCRASESLDNYGIHFLTWFQQKPGKAPKLLMYAASNQGSGVPSRFSGSGSGTEFTLTISSLQPDDFATYYCQQTKEVPWSFGQGTKVEVK
notes: IgG; gemtuzumab VL variant #12 (R35H)
B19: MYT1179 (antibody, V domains shown)
VH: EVQLVQSGAEVKKPGSSVKVSCKASGYTITDHNIHWVRQAPGQSLEWIGYIHPYNGHTDYNQKFKNRATLTVDNPTNTAYMELSSLRSEDTDFYYCVNGNPWLAYWGQGTLVTVSS
VL: DIQLTQSPSTLSASVGDRVTITCRASESLDNYGIRFLTWFQQKPGKAPKLLMYAASNQGSGVPSRFSGSGSGTEFTLTISSLQPDDFATYYCQQTKEVPWSFGQGTKVEVK
notes: IgG; gemtuzumab VH combination #18 (S32H+Y52H+G57H)
B20: MYT1170 (antibody, V domains shown)
VH: EVQLVQSGAEVKKPGSSVKVSCKASGYTITDSNIHWVRQAPGQSLEWIGYIHPYNGHTDYNQKFKNRATLTVDNPTNTAYMELSSLRSEDTDFYYCVNGNPWLAYWGQGTLVTVSS
VL: DIQLTQSPSTLSASVGDRVTITCRASESLDNYGIRFLTWFQQKPGKAPKLLMYAASNQGSGVPSRFSGSGSGTEFTLTISSLQPDDFATYYCQQTKEVPWSFGQGTKVEVK
notes: IgG; gemtuzumab VH combination #9 (Y52H+G57H)
B21: MYT1171 (antibody, V domains shown)
VH: EVQLVQSGAEVKKPGSSVKVSCKASGYTITDSNIHWVRQAPGQSLEWIGYIYPHNGHTDYNQKFKNRATLTVDNPTNTAYMELSSLRSEDTDFYYCVNGNPWLAYWGQGTLVTVSS
VL: DIQLTQSPSTLSASVGDRVTITCRASESLDNYGIRFLTWFQQKPGKAPKLLMYAASNQGSGVPSRFSGSGSGTEFTLTISSLQPDDFATYYCQQTKEVPWSFGQGTKVEVK
notes: IgG; gemtuzumab VH combination #10 (Y54H+G57H)

The target in the experiment is CD33 (Sino Biological, Cat #12238-H08H) (UniProt P20138 18-259). As to the kind of experiment: BLI, IgG captured on anti-human Fc sensor, 50 nM CD33, pH 7.4 vs pH 5.4.
Sequence of CD33 (Sino Biological, Cat #12238-H08H) (P20138 18-259 limits assumed): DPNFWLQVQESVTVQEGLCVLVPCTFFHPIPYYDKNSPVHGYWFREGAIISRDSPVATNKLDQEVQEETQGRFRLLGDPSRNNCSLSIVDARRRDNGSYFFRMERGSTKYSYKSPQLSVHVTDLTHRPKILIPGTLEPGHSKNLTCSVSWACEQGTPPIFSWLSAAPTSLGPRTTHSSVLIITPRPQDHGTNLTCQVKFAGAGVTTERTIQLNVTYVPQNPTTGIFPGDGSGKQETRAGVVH
As for B1, the binding result is “binds”.

B2: the binding result was “binds”.

Regarding B3, the binding result is reported as “binds”.

Regarding B4, the binding result is “binds”.

Turning to B5, the binding result is given as “binds”.

For the molecule B6, the binding result is on record as “binds”.

As to B7, the binding result is “binds”.

On to B8, for which the binding result is listed as “binds”.

For the molecule B9, the binding result was “binds”.

As for B10, the binding result was “binds”.

Consider B11, for which the binding result is given as “binds”.

With B12, the binding result is listed as “binds”.

B13: the binding result is “binds”.

B14: the binding result is “binds”.

As for B15, the binding result is “binds”.

Regarding B16, the binding result is “binds”.

As to B17, the binding result is reported as “binds”.

Consider B18, for which the binding result is on record as “binds”.

B19: the binding result was “binds”.

B20: the binding result is recorded as “binds”.

B21: the binding result is recorded as “binds”.
